Laboratory results as given in paper PMC2762092 (The Journal of Cell Biology, 2009).

How the values were obtained:
Test in all cases: pull-down
[1] = biological target: T1, 6xHis-tagged SPN-2N (SPN-2 N-terminal fragment, 1-399 aa) (C. elegans, UniProt Q20898 1-399)
T1 sequence: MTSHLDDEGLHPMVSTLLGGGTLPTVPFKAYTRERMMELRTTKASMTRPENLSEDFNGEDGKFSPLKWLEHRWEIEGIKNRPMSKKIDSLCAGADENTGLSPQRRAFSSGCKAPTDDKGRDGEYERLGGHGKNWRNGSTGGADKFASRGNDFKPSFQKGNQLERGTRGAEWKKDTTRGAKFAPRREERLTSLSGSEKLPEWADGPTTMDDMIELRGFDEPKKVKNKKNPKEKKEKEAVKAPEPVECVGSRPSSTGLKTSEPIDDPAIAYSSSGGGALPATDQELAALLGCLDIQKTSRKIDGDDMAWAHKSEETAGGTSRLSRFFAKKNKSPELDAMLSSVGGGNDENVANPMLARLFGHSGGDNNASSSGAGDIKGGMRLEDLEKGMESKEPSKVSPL

[2] = biological target: T2, 6xHis-tagged SPN-2 (full-length) (C. elegans, UniProt Q20898 1-761)
T2 sequence: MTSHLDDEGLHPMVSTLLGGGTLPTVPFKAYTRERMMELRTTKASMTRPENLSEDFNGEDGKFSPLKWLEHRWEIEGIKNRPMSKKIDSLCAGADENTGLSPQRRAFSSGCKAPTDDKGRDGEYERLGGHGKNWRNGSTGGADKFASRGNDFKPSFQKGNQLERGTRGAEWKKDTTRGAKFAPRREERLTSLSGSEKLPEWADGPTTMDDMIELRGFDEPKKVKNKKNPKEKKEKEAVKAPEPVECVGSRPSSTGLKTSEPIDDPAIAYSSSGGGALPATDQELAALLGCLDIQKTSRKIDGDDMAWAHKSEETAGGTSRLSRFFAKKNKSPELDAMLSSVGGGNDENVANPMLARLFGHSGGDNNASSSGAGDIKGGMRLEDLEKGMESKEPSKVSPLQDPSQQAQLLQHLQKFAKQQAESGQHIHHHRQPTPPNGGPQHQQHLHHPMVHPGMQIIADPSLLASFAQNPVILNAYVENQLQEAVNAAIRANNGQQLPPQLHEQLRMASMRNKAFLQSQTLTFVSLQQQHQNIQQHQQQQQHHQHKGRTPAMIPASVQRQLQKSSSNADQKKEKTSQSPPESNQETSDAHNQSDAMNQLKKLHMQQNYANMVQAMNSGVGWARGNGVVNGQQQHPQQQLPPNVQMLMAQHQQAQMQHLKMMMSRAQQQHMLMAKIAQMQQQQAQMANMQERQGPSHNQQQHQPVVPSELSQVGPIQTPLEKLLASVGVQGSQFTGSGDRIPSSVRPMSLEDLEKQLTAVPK

[3] = biological target: T2, 6xHis-tagged SPN-2 (full-length); remark: listed apart in the source

B1: GST–IFE-2 (natural protein)
chain: MSEEPVAAPGTISHPVYKLKRNWTWWYLNDERNKSWEERLKNVKTFSSVGEFWALHDSIKPPSGLNPPSDYNVFRDGIEPMWEVPQNQNGGRWLITIEKGRTPEIMDTIWTEILMAMIGEQFSDDIESLCGIVCNVRGKGSKISVWTTNSADDGANLRIGGVLKQVLNNASMIHQRPLYDVLRYEDHESCQKKTSSGVKAKHAIYAVEPREEKAPVPVSTETPATPAT
B1: binds [1]; binds [2].

B2: GST–IFE-5 (natural protein)
chain: MTELTTPIYPLQRNWSWWFLNDDRNASWQDRLKKVYTFNTVPEFWAFYEAILPPSGLNDLCDYNVFRDDIQPKWEAPENWDGGRWLIIINKGKTPEVLDAVWLEILLALIGEQFGKDMESICGLVCNVRGQGSKISVWTKNCNDDDTNMRIGVVLKEKLMAAASKAHSKPLFDVIHYQTHRNCVKKTTSALKYKFSLKSIV
B2: binds [1]; binds [2].

B3: GST–IFE-1 (natural protein)
chain: MTETEQTTAPIYPLKRNWTWWYLNDERNKSWEDRLKKVYTFNTVSEFWALYDAIRPPSGLNALCDYNVFRDDIQPMWEVPENSNGGRWLIVIDKGKTPEMVDAIWLEILMALVGEQFGKDMESICGLVCNVRGKGSKISVWTKDCNDDETNMRIGVVLKEKLMAASKDHSKPLFDVIRYEDHESCQKKTSSVVKAKLSLHSSDAPVAEKSAV
In the case of B3, the Kd [3] is reported as 33 nM.
